Assay results from the RNAGym collection of RNA variant scans (doi:10.1073/pnas.2313332121).

B1: TPR t1 (parent)
chain: GACCAAUCUGCCCUCAGAGCUCGAGAACAUCUUCGGAUGCAGAGGAGGCAGGCUUCGGUGGCGCGAUAGCGCCAACGUCCUCAACCUCCAAUGCAUCCCACCACAUGAUGAUGCCUGAAGAGCCUUGGUUUUUUG

Variants of: B1
Assay: polymerase ribozyme fitness, log enrichment relative to wild type (log ratio); higher = more active; in vitro selection for triplet polymerase activity
Summary of the method: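 To select mutant libraries of each subunit of a heterodimeric triplet polymerase ribozyme, built by PCR and transcribed, each was annealed with a biotinylated primer, partner subunit and triplets, then incubated frozen at −7 °C. Extended constructs were gel-excised, captured on streptavidin beads and amplified by RT-PCR, in one round carried out in triplicate. Illumina sequencing of input and output libraries kept genotypes with ≥10 input reads and ≥1 read per output. Fitness is the base-2 logarithm of genotype enrichment relative to wild-type enrichment, from inverse-variance-weighted replicate averages.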

Variant	polymerase ribozyme fitness (log ratio)
G48A C72A	-0.519
G48A C72U	-0.785
G48A C72G	-0.135
G47U C85U	-1.98
G45U G120A	-0.795
G45U G120C	-0.784
G47U C89U	-3.28
G45U G122A	-1.14
A46U U96A	-1.81
G47A G51U C72U U78C	-5
G48A G110C	-4.33
A46U A83G G110A	-3.02
G47A G58U G110U G120A	-3.22
A46G U54G	0.0807
G48A A105C G120A A121C G122U U129A	-3.55
A46U G63A C85G A121C	-1.37
G47U G60A G117A	-3.41
G47A U59G A91U G113A	-2.02
G47A U125G	-2.16
A46U G93U	-2.06
G47A A50U G57U C82A	-2.37

Variant	polymerase ribozyme fitness (log ratio)
G48A C56G C85G C94A A105G	-6.42
G48A C89U C124U	0.551
A46C C56A C85G	-5.4
A46U C82A	-1.42
G45U U55C	-1.88
G47A U54C C97G	-5.9
G48A G57A G60U G120A	-0.327
A46G G113A	-1.46
G48A G120C	0.921
G48A G63U C82G A91U G117C	-5.43
G45U U96G	-1.78
G47U U96C A118G	-1.69
G48C A74C	-0.603
G47U C70U C88U	-3.39
A46U G113U	-3.73
A46U G63C C76A C85A C115G	-5.34
G48A C56U C70A G93A	-5.28
G47U G120C U131G	0.253
A46U C104A	-2.88
A46C G69U	-0.0247
A46C C49U A111U U133G	-5.19

Variant	polymerase ribozyme fitness (log ratio)
G47U U54A G120A	-0.309
G47A U54C G77A C82A G110A C123A	-3.8
G45U G61U	-0.836
G45U U96A U132A	-2.11
G47U G61A C123A	-0.25
G45U G69U	-0.706
A46C C72U A75U C123U	0.328
G48A C124U	1.15
A46U A121C	1.4
G47A C82G U106A	-1.42
G47U G58A A83C	-2.55
A46G C98U G117C	-5.69
A46U C88A	-1.18
G47U C64U A121U	0.804
G47C G61A	-0.75
G47C G48A	-2.94
A46U G71U C89U C115A	-2.17
G47U G58U C88U	-2.22
G47U C72U	-1.71
G48A U59A G69C A84U A118C	-3.45
G47U U125G	-2.32

Variant	polymerase ribozyme fitness (log ratio)
A46G G47A U59A	-0.512
G45U G61U G117U C123A	-2.94
A46G U55G U87C	-0.104
G45U G63C	-2.21
G45U G63U	-2.05
G48A G61A	-0.0923
G47C A50U U81C C114U	-4.15
A46U G117C	-1.89
G48A C86U	-0.5
G48A C86A	-0.909
G47A G51U U55A C98A G113C	-7.22
A46U C97A C99G G117C	-7.9
G48C C62A G63U A121G	-4.74
G47A C70A C101U	-1.81
G47U U54C C70U U96C U116C U129C	-4.8
G47U A66C A95C	-4.27
G48A U87A U96A	-1.88
G47A G48A U129A	-2.41
G48A G60A U78C U109A G110U	-4.9
G47U G51U C124U	-3.46
G47U G135C	-1.39
